Changes are numbered by the printed parent chain.
B1: Se-Met-MtPrpR_(81–486) (selenomethionine-derived MtPrpR_(81–486)) (domain or fragment)
chain: DARLVADLSDVFTDIGVEHAVSGAQIEEFVARMPEVGHSLVAVHRRLRAATEELEGYRSRATAETELPPARPMPFEEVRDFFYDRNNYIHDLDMAAERMFTESGMRTGGLDIQLAELMRDRFGISVVIDDNLPDTAKRRYHPDTKVLRVAHWLMPGQRAFQIATQLALVGQSDLISSIVATDDQLSTEARGVARIGLANYFAGAFLLPYREFHRAAEQLRYDIDLLGRRFGVGFETVCHRLSTLQRPRQRGIPFIFVRTDKAGNISKRQSATAFHFSRVGGSCPLWVVHDAFAQPERIVRQVAQMPDGRSYFWVAKTTAADGLGYLGPHKNFAVGLGCDLAHAHKLVYSTGVVLDDPSTEVPIGAGCKICNRTSCAQRAFPYLGGRVAVDENAGSSLPYSSTEQSV
modifications: selenomethionine incorporated in place of methionine
notes: also called Se-PrpR_(81–486); not shown: His6, N-terminal, kept
B2: MtPrpR_(81–486)_F155H variant (domain or fragment)
chain: B1 chain with F75H
notes: also called MtPrpR_(81–486)_F155H mutant; MtRamB-like mutant of MtPrpR; not shown: His6, N-terminal, kept

Legend:
crystal structure = biological target: the molecule itself; experiment: crystal structure
SEC = biological target: the molecule itself; experiment: SEC

Protein	stoichiometry N (crystal structure)	stoichiometry N (SEC)
B1	4	–
B2	–	4
